From PMC4561382, “Aven recognition of RNA G-quadruplexes regulates translation of the mixed lineage leukemia protooncogenes” come the findings set out here.

One data set deals with T1, Aven DiRGG peptide (human, UniProt Q9NQS1).
T1 chain: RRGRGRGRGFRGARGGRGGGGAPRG
Briefly: fluorescence plate binding (immobilized peptide); K+-folded RNA; joint range (173-200 in author response); RNA folded in 10 mM Tris-acetate pH 7.7, 200 mM K-acetate, 5 mM Mg-acetate (75 C 10 min, 21 C 5 min); peptide assay 1 h at room temperature, washes in this buffer; pull-down 100 nM RNA in cell lysate with 2 mg/ml heparin, 1 h on ice, beads 30 min at 4 C. The settings on record: tags: N-terminal biotin; G4.

For the next data set, the target named is T2, Aven TriRG peptide (human, UniProt Q9NQS1).
T2 chain: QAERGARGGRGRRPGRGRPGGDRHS
Briefly: fluorescence plate binding (immobilized peptide); K+-folded RNA; range given jointly for TriRG and TriRGme; RNA folded in 10 mM Tris-acetate pH 7.7, 200 mM K-acetate, 5 mM Mg-acetate (75 C 10 min, 21 C 5 min); peptide assay 1 h at room temperature, washes in this buffer; pull-down 100 nM RNA in cell lysate with 2 mg/ml heparin, 1 h on ice, beads 30 min at 4 C. Conditions: tags: N-terminal biotin; G4.

As for GCUGCGGUGUGGAAGGAGUGGUCGGGUUGCGCAGCG (structured_RNA) [sc1 G4 (fluorescein)], the Kd is around 187 nM in the data set with Aven DiRGG peptide and around 84.8 nM with Aven TriRG peptide.
